Laboratory results published in patent US9120851B2, “Human antibodies to human angiopoietin-like protein 4” (Regeneron Pharmaceuticals, Inc., priority 2009, dated 2015).
Changes are numbered by the printed parent chain. Each block holds one molecule with its values, some of them ahead of it.

Assays:
hANGPTL3-His = target: T1, hANGPTL3-His (Homo sapiens, UniProt Q9Y5C1); test: BIACORE cross-reactivity, amine coupled hANGPTL3-His; format: binding; settings: for Specific RU, hANGPTL3-His: chip surface 5228 RU, mAb injected at 3.125-50 μg/mL
T1 construct: His; purchased R&D Systems 3829-AN
T1 sequence (Q9Y5C1 17-460): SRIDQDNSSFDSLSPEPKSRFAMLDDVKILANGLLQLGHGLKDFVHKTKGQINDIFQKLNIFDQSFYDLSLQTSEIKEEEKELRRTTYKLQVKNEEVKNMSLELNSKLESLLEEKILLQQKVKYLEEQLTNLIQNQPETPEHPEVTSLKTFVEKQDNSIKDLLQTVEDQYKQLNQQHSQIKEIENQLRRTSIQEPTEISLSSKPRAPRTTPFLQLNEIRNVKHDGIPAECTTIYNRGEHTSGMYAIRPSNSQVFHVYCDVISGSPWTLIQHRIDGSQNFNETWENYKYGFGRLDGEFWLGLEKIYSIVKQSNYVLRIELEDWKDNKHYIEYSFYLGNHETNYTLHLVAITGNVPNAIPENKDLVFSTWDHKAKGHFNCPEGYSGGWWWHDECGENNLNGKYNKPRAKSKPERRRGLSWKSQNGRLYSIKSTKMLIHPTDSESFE
Description: Possible cross-reactivity of the anti-hANGPTL4 antibodies to related proteins, i.e., hANGPTL3, human angiopoietin-like protein 5 (hANGPTL5) and mouse ANGPTL4 (mANGPTL4), was tested for the selected antibodies, i.e., H1H268P and H1H284P, using the BIACORE™ system. Briefly, anti-hANGPTL4 antibodies as well as negative controls, i.e., two monoclonal antibodies (Control a and Control b) that are non-binders to any ANGPTL proteins, were injected at 3.125 μg/mL-50 μg/mL over amine coupled chip surfaces of hANGPTL3-His (R&D Systems, cat #3829-AN) at 5228 RU, hANGPTL4-His (R&D Systems, cat #4487-AN) at 6247 RU, hANGPTL5-His (Abnova Corp., cat #H00253935-P01) at 5265 RU, and mANGPTL4-His [R26-S410 of mANGPTL4 (SEQ ID NO: 478) fused with an AS linker to a C-terminal 6-histidine tag] at 5233 RU, respectively. A polyclonal antibody specific for hANGPTL3 (R&D System, cat #BAF3485) was also tested.

humanized ANGPTL4 mice = test: Serum TG levels in humanized ANGPTL4 mice; format: in vivo, mouse; settings: for Serum TG: mean±SEM
Description: The effect of anti-hANGPTL4 antibodies H1H268P and H1H284P on serum TG levels was determined in mice expressing the ANGPTL4 protein containing the human N-terminal coil-coil region (“humanized ANGPTL4 mice”). The humanized ANGPTL4 mouse was made by replacing first three exons of the mouse Angptl4 gene (the N terminal coil-coil region) with the corresponding human N-terminal coil-coil ANGPLT4 sequence in C57BL6/129 (F1H4) embryonic stem cells. After germ line transmission was established, heterozygous mice (ANGPTL4hum/+) were bred together to generate homozygous mice [ANGPTL4hum/hum or hANGPTL4(+/+)] on a C57BL6 background. Humanized ANGPTL4 mice were pre-bled 7 days before (day −7) the experiment and put into groups of six mice each for each antibody tested. Antibodies (H1H268P, H1H284P and isotype-matched (hIgG1) control with no known cross-reactivity to mouse antigens) were administered at 10 mg/kg dose by subcutaneous injection. Mice were bled after 4 hours of fasting at days 1, 4, 7 and 11 after antibody injection; and serum TG levels were determined by ADVIA® 1800 Chemistry System (Siemens). Average TG levels were calculated for each time point for each antibody.
The effect of anti-hANGPTL4 antibodies, H4H268P2 and H4H284P, on serum TG levels was determined in humanized ANGPTL4 mice. Humanized ANGPTL4 mice were pre-bled 7 days before the experiment and put into groups of six mice each for each antibody tested. Antibodies (H4H268P2, H4H284P and isotype-matched (hIgG4) control with no known cross-reactivity to mouse antigens) were administered at 10 mg/kg dose by subcutaneous injection. Mice were bled after 4 hours of fasting at days 1, 4, 7 and 11 after antibody injection; and TG levels were determined in the serum by ADVIA® 1800 Chemistry System (Siemens). Average TG levels were calculated for each time point for each antibody.

mANGPTL4(26-410)-His = target: T2, mANGPTL4(26-410)-His (Mus musculus, UniProt Q9Z1P8); test: Cell-free LPL bioassay, inhibition of mANGPTL4-His; format: biochemical; settings: constant 1 nM mANGPTL4(26-410)-His; antibody 0 to 100 nM; NB: Not blocking
T2 sequence (Q9Z1P8 26-410): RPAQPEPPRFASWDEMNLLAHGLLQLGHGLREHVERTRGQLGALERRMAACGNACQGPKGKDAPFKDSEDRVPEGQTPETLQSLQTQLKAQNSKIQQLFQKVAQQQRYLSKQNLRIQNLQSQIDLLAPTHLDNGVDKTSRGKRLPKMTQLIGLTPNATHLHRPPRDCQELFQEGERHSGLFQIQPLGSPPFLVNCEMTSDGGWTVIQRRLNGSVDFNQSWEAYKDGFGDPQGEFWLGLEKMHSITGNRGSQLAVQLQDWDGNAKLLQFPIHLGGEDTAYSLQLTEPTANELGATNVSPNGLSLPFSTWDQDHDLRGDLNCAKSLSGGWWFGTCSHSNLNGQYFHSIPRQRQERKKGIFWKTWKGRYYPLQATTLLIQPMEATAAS

[1] = target: T3, hANGPTL4 peptide (R34-L66 of SEQ ID NO:476) (Homo sapiens, UniProt Q9BY76); test: BIACORE, hANGPTL4 peptides injected over captured antibody; format: binding; settings: for ka: 62.5 nM-500 nM
T3 sequence (Q9BY76 34-66 limits assumed): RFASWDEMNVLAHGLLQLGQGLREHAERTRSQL
Description: Further, the binding affinities of H1H268P and H1H284P for various ANGPTL3 and ANGPTL4 peptides were also determined by BIACORE™ system. Briefly, H1H268P (1348±11 RU) and H1H284P (868±13 RU) were captured over anti-human Fc surface and various concentrations (62.5 nM-500 nM) of the hANGPTL3 and hANGPTL4 peptides were injected. The peptides tested were hANGPTL4 (R34-L66 of SEQ ID NO:476), N-terminally biotinylated hANGPTL4 (R34-L66 of SEQ ID NO:476), hANGPTL3 (R36-I68 of SEQ ID NO:485), and N-terminally biotinylated hANGPTL3 (R36-I68 of SEQ ID NO:485). Kinetic analysis was performed to measure ka and kd, and KD values and half-life of antigen/antibody complex dissociation were calculated. NB: No binding under the experimental conditions described.

[2] = day 1 after injection, 10 mg/kg s.c., 4 h fasting
[3] = day 4 after injection, 10 mg/kg s.c., 4 h fasting
[4] = day 7 after injection, 10 mg/kg s.c., 4 h fasting
[5] = day 11 after injection, 10 mg/kg s.c., 4 h fasting
[6] = hANGPTL4 peptide (not biotinylated)

- binding to hANGPTL3-His (other related ANGPTL protein), in words (hANGPTL3-His): did not bind
- Specific RU, hANGPTL3-His (hANGPTL3-His): −6 RU
- IC50 (mANGPTL4(26-410)-His): > 100 nM
- binding to the hANGPTL4 peptides, in words ([1]; both peptides, highest peptide concentration tested 500 nM): did not bind
B1: H1H284P: anti-hANGPTL4 antibody, hIgG1 isotype, HCVR/LCVR SEQ ID NOs 90/92 (antibody, V domains shown)
VH: QVQLVESGGGVVQPGRSLRLSCAASGFTFSSYGMHWVRQAPGKGLEWMAVISFDGGNKNNADSVKGRFTISRDNSKNTLYLQMNSLRAEDTAVYYCAKEGDRSGHPYFYYYGLDVWGQGTTVTVS
VL: DIQLTQSPSFLSASVGDRVTITCWASQGISSYLAWYQQKPGKAPKLLIYAASTLQSGVPSRFSGSGSETEFTLTISSLQPEDFATYYCQQLHSYPLTFGGGTKVEIK
- Serum TG (humanized ANGPTL4 mice; [2]): 125 ± 18 mg/dL
- Serum TG (humanized ANGPTL4 mice; [3]): 67 ± 9.8 mg/dL
- Serum TG (humanized ANGPTL4 mice; [4]): 91 ± 7.2 mg/dL
- TG levels relative to control, in words (humanized ANGPTL4 mice; day 11 after injection, 10 mg/kg s.c.): increased back to control level
- Serum TG (humanized ANGPTL4 mice; [5]): 109 ± 11 mg/dL
- Serum TG (humanized ANGPTL4 mice; day −7 (pre-bleed)): 113 ± 11 mg/dL

- binding to hANGPTL3-His (other related ANGPTL protein), in words (hANGPTL3-His): did not bind
- Specific RU, hANGPTL3-His (hANGPTL3-His): −17 RU
- IC50 (mANGPTL4(26-410)-His): > 100 nM
- kd ([1]; hANGPTL4-Nterm biotin peptide): 0.000294 s⁻¹
- ka ([1]; hANGPTL4-Nterm biotin peptide): 4530 M⁻¹ s⁻¹
- kd [1, 6]: 0.000365 s⁻¹
- ka [1, 6]: 6490 M⁻¹ s⁻¹
B2: H1H268P: anti-hANGPTL4 antibody, hIgG1 isotype, HCVR/LCVR SEQ ID NOs 42/44 (antibody, V domains shown)
VH: QVQLQESGAGLLKPSETLSLTCTVYGGSFSIHHWTWIRHPPGKGLEWIGEINHRGSTNYNPSLKSRVTISIDTSKNQFSLKLSAVTAADTAVYYCARGLRFLDWLSSYFDYWGQGTLVTVSS
VL: DIQMTQSPSSLSASVGDRVTITCRASQGISDYLAWYQQKPGKVPNLLIYAASALQSGVPSRFSGSGSGTDFTLTISSLQPEDVATYYCQNYNTAPLTFGGGTKVEIK
- reduction in circulating TG compared to isotype-matched control antibody (humanized ANGPTL4 mice; 4-11 days after administration, 10 mg/kg s.c.): 25-30%
- Serum TG (humanized ANGPTL4 mice; [2]): 129.8 ± 5.6 mg/dL
- Serum TG (humanized ANGPTL4 mice; [3]): 73.3 ± 8.9 mg/dL
- Serum TG (humanized ANGPTL4 mice; [4]): 83 ± 14 mg/dL
- Serum TG (humanized ANGPTL4 mice; day −7 (pre-bleed)): 112 ± 9.3 mg/dL

B3: H4H268P2: IgG4 version of H1H268P with a single amino acid substitution in framework region 1, HCVR/LCVR SEQ ID NOs 487/44 (antibody, V domains shown)
VH: B2 VH with E6Q
VL: B2 VL
modifications: IgG4 constant region
- reduction in circulating TG compared to isotype-matched control antibody, in words (humanized ANGPTL4 mice; day 1, 10 mg/kg s.c.): significant reduction
- Serum TG (humanized ANGPTL4 mice; [2]): 81 ± 6.8 mg/dL
- reduction in circulating TG compared to isotype-matched control antibody, in words (humanized ANGPTL4 mice; day 4, 10 mg/kg s.c.): significant reduction
- Serum TG (humanized ANGPTL4 mice; [3]): 67 ± 5.3 mg/dL
- Serum TG (humanized ANGPTL4 mice; [4]): 56 ± 7.1 mg/dL
- Serum TG (humanized ANGPTL4 mice; [5]): 87 ± 8.7 mg/dL
- Serum TG (humanized ANGPTL4 mice; day −7 (pre-bleed)): 101 ± 9.3 mg/dL
